Reference: patent US20160333092A1 (ORDER MADE MEDICAL RESEARCH, published 2016)

T1: human SLC6A6 (solute carrier family 6 (neurotransmitter transporter, taurine), member 6) (human, UniProt P31641 1-620)
T1 construct: also called native SLC6A6; SLC6A6 on the cell membrane
T1 sequence: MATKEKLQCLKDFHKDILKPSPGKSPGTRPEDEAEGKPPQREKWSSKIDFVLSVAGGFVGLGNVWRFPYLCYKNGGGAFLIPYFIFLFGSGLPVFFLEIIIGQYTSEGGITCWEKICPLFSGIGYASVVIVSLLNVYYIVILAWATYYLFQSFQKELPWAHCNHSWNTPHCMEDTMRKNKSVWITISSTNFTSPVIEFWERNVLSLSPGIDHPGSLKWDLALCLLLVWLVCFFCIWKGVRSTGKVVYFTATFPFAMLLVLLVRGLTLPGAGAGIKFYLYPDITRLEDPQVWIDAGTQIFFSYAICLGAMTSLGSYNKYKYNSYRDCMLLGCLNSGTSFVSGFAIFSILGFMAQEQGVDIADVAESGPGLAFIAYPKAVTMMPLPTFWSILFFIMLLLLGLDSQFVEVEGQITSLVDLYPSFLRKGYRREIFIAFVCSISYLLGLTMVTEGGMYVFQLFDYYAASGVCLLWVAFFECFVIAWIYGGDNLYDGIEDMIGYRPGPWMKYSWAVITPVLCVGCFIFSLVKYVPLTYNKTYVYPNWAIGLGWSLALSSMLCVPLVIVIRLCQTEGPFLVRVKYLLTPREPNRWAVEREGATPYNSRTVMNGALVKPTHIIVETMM

T2: partial protein of the extracellular region of SLC6A6 (amino acid residues 143 to 216, E. coli recombinant) (human, UniProt P31641 143-216)
T2 construct: also called SLC6A6 partial protein; recombinant protein
T2 sequence: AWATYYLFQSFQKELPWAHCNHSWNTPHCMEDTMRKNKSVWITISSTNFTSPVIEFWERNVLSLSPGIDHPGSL

B1: monoclonal antibody produced from mouse-mouse hybridoma 422 (antibody, V domains shown)
VH: VQLQQSGPEVVKPGPSLRMSCKASGYFFTGNSMNWVKKTHGRSLEWIGLIDLSNGETRFNQKFKGKATLTVDKSSGTAYMELLNLTSEDSAVYYCASRSAMIMPCFSHWGQGTLVTVSA
VL: DIVMTQSHNFMSTSIGDRVNITCKASQDVATAVAWFQQKPGQSPKLLIYWTSTRHTGVPDRFTGSGYGTDFTLTISHVQSEDLADYFCQQYDTYPYTFGGGTKLEIK
notes: also called 422 antibody; antibody clone 422
B2: human-mouse chimeric 205 antibody (antibody, human IgG1, kappa, V domains shown)
VH: QVKLQQSGPELVKPGASVKMSCKASGYTFTSYVMHWVKQKPGQGLEWIGYINPYNDGTKYNEKFKGKATLTSDKSSSTAYMELSSLTSEDSAVYYCARRKAWFAYWGQGTLVTVSA
VL: DIQMTQSPASQSASLGESVTITCLASQTIGTWLAWYQQKPGKSPQLLIYAATSLADGVPSRFSGSGSGTKFSFKISSLQAEDFVSYYCQQLYSTPLTFGGGTKLEIKR
notes: Human IgG1 / human kappa constant regions
B3: monoclonal antibody produced from mouse-mouse hybridoma 419 (antibody, V domains shown)
VH: IQLQQSGPELVKPGASVKVSCKAFGYAFTRHNMYWVKQRHGKCLEWIGYIDPFNGGTSYNQKFKGKATLTVDKSSSTAYMHLNSLTSEDSAVYYCARVYGNYAWFAYWGQGTLVTVSA
VL: DIVMTQSHKFMSTSVGDRVSITCKASQDVSTAVAWYQQIPGQSPKLLIYSSSYRYTGVPDRFTGSGSGTDFTFTISSVQAEDLAVYYCQQHYNTPWTFGGGTKLEIK
B4: monoclonal antibody produced from mouse-mouse hybridoma 303 (antibody, V domains shown)
VH: VQLQQPGAEFVKPGTSVKLSCKASGYNFTRYWINWVKLRPGQGLEWIGNIYPATNGINYNEKFKSKATLTVDTFSSTAYMQLSSLASEDSGLYYCARCKTMLSRCAWFPYWGQGTLVTVSA
VL: DIQMTQTTSSLSASLGDRVTINCRASQDISNYLNWYQQKPDGTVKLLIYDTSRLHSRVPSRFSGSGSGTDYSLTISNLEQEDIATYFCQQGNMLPWTFGGGTKLEIK
B5: monoclonal antibody produced from mouse-mouse hybridoma 205 (antibody, V domains shown)
VH: VKLQQSGPELVKPGASVKMSCKASGYTFTSYVMHWVKQKPGQGLEWIGYINPYNDGTKYNEKFKGKATLTSDKSSSTAYMELSSLTSEDSAVYYCARRKAWFAYWGQGTLVTVSA
VL: DIQMTQSPASQSASLGESVTITCLASQTIGTWLAWYQQKPGKSPQLLIYAATSLADGVPSRFSGSGSGTKFSFKISSLQAEDFVSYYCQQLYSTPLTFGGGTKLEIK

Columns and labels:
[1] = biological target: T1, human SLC6A6 (solute carrier family 6 …); assay: immunocytological staining of formalin-fixed HT-29 and LoVo cells, antibody 10 ug/mL
Method: (§1) Moreover, as controls for comparison purposes, the anti-SLC6A6 antibodies “4B9b” and “5H12d” disclosed in WO2012/029990 were also analyzed in the same manner. Hereinafter, antibodies produced by hybridoma cells are also represented by their respective clone numbers.
(§2) HT-29 and LoVo cells were cultured to reach 80% confluency and then seeded onto cover slips coated with Cellmatrix Type I-A (Nitta Gelatin Inc., Japan). After culture for 2 days, the cells were fixed with 10% neutral buffered formalin (WAKO). After being treated with 0.3% (v/v) aqueous hydrogen peroxide for 20 minutes, the cover slips were washed three times with TBST and treated with TBST containing 5% (w/v) skimmed milk, followed by addition of the antibodies purified in (7) above at a concentration of 10 μg/mL and reaction at 4° C. for 16 hours. […] After washing three times with TBST, the cover slips were sealed with Mounting Medium (Vector Shield).

[2] = biological target: T2, partial protein of the extracellular …; assay: ELISA on coated recombinant SLC6A6 partial protein (residues 143-216), HRP-labelled secondary antibody
Method: The recombinant protein obtained in (4) above (10 μg/ml) was dispensed in 100 μL volumes into MaxiSorp 96-well plates (Nunc) and adsorbed onto the plates at room temperature for 1 hour. After adsorption, each well was washed with TBS-T (TBS-T (25 mM Tris, 150 mM NaCl, 0.05% (v/v) Tween 20, pH 7.4) and charged with skimmed milk (GIBCO), which had been diluted to 5% with TBS-T, to conduct blocking for 30 minutes at room temperature. After each well was washed three times with 200 μL of TBS-T, mouse plasma samples collected from the tail vein were each diluted 1/2000-fold with TBS-T and added to the ELISA plates in a volume of 100 μL per well, followed by reaction at room temperature for 1 hour. Each well was washed three times with 200 μL of TBS-T.
The thus obtained monoclonal antibody-producing hybridoma cells were cultured in ten 10 cm dishes to reach 90% confluency and then cultured for 10 days in a 1:1 mixture of HT medium (Invitrogen) and EX CELL Sp2/0 (Nichirei Bioscience Inc., Japan). The culture supernatants were collected and purified with a Protein G column. The Protein G column (GE Healthcare) was used in a volume of 0.5 mL relative to 100 mL of the culture supernatant. The cultured solutions were each passed at a flow rate of 1 to 3 ml/min through the Protein G column which had been equilibrated with PBS(−), followed by washing with 6 mL of washing buffer (25 mM Tris-HCl (pH 7.4), 140 mM NaCl, 10 mM KCl). Then, antibody proteins were eluted with 1 mL of elution buffer (0.1 M glycine-HCl (pH 2.5) or 0.1 M glycine-HCl (pH 3.0)) and neutralized with 0.5 M Tris-HCl (pH 7.4) to be within pH 7.0 to 7.4. The antibodies were concentrated with Amicon Ultra 30 (Millipore) and the buffer was replaced with PBS(−).

[3] = biological target: T1, human SLC6A6 (solute carrier family 6 …); assay: binding activity on HCT15 and HT-29 cells, antibody 10 ug/mL, anti-human IgG-HRP secondary antibody
Method: In this case, the antibody concentration was set to 10 μg/mL.

[4] = biological target: T1, human SLC6A6 (solute carrier family 6 …); assay: immunocytological staining of formalin-fixed HT-29 and LoVo cells, antibody 10 ug/mL; compared with 4B9b and 5H12d
Method: as §1, §2

Binder	binding result [1]	binding result [2]	binding result [3]	binding result [4]
B1	binds	binds	–	–
B2	–	–	binds	–
B3	–	binds	–	binds
B4	–	binds	–	binds
B5	–	binds	–	binds
